The text below walks through data of publication PMC6104826.

The test has as its target HA-tagged cMyBP-C construct C6–C8 (human). Nature of the test: co-IP; HEK293 cells co-expressing cMyc-tagged BT (RyR) constructs with HA-tagged cMyBP-C constructs; HA–cMyBP-C immunoprecipitated with Ab^HA from solubilised cell lysates, co-precipitated BT detected by western blotting with Ab^cMyc; non-immune rabbit IgG as negative control; densitometry. (In general: In western blotting, separated proteins are transferred to a membrane and probed.)

HA-tagged cMyBP-C construct C6–C8 (human), sequence (Q14896 whole entry): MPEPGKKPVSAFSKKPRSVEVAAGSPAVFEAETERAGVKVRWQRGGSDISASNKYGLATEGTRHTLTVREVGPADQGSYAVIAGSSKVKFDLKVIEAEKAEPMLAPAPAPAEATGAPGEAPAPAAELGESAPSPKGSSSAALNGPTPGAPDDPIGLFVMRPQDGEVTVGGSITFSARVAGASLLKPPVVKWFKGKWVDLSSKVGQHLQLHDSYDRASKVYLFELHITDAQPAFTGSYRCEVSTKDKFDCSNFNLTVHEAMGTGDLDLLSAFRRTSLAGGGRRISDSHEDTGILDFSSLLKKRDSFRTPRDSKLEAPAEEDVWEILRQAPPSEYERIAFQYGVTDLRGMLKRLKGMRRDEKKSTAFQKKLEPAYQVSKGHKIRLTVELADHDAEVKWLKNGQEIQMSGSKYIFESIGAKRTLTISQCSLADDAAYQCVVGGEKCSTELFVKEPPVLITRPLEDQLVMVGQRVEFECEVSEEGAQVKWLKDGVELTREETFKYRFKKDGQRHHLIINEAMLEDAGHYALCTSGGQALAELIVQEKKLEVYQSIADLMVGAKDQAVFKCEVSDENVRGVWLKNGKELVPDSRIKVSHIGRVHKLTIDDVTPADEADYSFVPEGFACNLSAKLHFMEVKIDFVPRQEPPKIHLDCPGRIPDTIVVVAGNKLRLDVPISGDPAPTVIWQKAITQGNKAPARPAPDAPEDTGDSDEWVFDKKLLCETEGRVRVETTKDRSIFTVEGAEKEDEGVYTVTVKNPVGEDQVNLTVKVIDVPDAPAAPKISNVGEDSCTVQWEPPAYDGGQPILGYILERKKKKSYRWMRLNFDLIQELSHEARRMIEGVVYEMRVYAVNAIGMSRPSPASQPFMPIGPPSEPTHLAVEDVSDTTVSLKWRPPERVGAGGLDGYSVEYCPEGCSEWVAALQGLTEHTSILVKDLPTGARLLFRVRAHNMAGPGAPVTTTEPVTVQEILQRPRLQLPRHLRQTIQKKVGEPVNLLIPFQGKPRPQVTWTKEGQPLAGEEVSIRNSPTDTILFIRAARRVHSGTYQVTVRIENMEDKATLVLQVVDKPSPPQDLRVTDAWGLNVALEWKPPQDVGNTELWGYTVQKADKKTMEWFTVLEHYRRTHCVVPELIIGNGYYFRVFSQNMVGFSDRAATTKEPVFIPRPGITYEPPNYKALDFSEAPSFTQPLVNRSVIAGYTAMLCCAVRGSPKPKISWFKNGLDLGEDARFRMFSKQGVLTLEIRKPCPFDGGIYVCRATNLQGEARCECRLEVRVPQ

As for “BT4L (cMyc-tagged RyR2 residues 1–906) (from UniProt Q92736 1-906) (domain or fragment)”, the fold signal against C8–C10 was determined as 3 fold.
